EC50 (read off the curve) data for one substance are collected here from patent US20260098093A1.

The target of this test is recombinant human VISTA-Fc protein (R&D #7126-B7) (human) (UniProt Q9H7M9). The test is described as follows: ELISA: plate coated with human VISTA-Fc, LRIG1.HIS titrated (x axis labelled 'Antibody Concentration (log M)'). On the technique in general: An ELISA detects its analyte on a solid surface through an enzyme-linked reagent.
Sequence of recombinant human VISTA-Fc protein (R&D #7126-B7) (human) (Q9H7M9 33-194 limits assumed): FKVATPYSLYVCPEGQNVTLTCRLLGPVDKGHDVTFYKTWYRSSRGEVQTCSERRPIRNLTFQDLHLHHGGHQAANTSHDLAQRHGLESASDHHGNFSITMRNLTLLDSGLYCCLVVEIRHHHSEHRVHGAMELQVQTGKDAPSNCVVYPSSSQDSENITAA

Broadly, the EC50 (read off the curve) is the concentration that produces a half-maximal response. As to “recombinant human LRIG1.HIS (from UniProt Q96JA1 35-794) (receptor)”, the EC50 (read off the curve) turned out to be 9 nM.
